In patent US12679878B2, “CRF2 receptor agonists and their use in therapy” (SANOFI, priority 2020, dated 2026):
Where two headings read alike, the source gives them in different places. One block for each molecule: values may come before it. Starred links: 1 amine or outer side, 2 acyl side, 3 side chain; linkers in the order of their positions; H or OH if unused. Non-standard residues stand in square brackets, D forms with d. Residues, ends and D or L forms follow the SMILES beside them. Groups on a side chain read outwards from the residue. No end group written: not given here. *: point of attachment. C20 diacid = O=C(O)CCCCCCCCCCCCCCCCCCC(=O)*; C18 diacid = O=C(O)CCCCCCCCCCCCCCCCC(=O)*; γGlu = O=C(O)[C@H](CCC(=O)[*:2])N[*:1]; Palmitoyl = CCCCCCCCCCCCCCCC(=O)*; AEEA = NCCOCCOCC(=O)O; Aib = CC(C)(N)C(=O)O

Tests used:
CRF1R receptor = molecular target: T1, CRF1R receptor (Homo sapiens, UniProt P34998); test: cAMP activity at anti-target CRF1R, CRF1R-overexpression CHO cell line (Example 9); assay type: cell-based; details: CRF1R-overexpression CHO cell line
T1 construct: host or cells: CHO-K1 clone 2
T1 sequence (P34998 24-415): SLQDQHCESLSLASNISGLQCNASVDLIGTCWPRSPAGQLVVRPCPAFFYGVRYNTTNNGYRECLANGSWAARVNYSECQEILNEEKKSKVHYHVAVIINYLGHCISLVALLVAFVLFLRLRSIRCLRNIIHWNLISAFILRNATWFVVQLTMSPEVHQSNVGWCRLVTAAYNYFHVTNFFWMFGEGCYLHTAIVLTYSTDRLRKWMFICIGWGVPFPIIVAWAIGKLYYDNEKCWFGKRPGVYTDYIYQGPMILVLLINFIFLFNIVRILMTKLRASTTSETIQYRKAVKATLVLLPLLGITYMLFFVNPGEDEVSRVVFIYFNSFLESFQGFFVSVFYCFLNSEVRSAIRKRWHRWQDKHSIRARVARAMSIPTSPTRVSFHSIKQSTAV
Procedure: Cells were grown in a T175 culture flask placed at 37° C. to near confluence in medium (DMEM/10% FBS) and collected in 2 ml vials in cell culture medium containing 10% DMSO in a concentration of 10-50 million cells/ml. Each vial contained 1.8 ml cells. The vials were slowly frozen to −80° C. in isopropanol and then transferred in liquid nitrogen for storage. Prior to use, frozen cells were thawed quickly at 37° C. and washed (5 min at 900 rpm) with 20 ml cell buffer (1×HBSS; 20 mM HEPES; 0% or 0.1% HSA). Cells were resuspended in assay buffer (cell buffer plus 2 mM IBMX) and adjusted to a cell density of 1 million cells/ml. For measurement, 5 μl cells (final […]) and 5 μL of test compound were added to a 384-well plate, followed by incubation for 30 minutes at room temperature.
The CAMP content of cells was determined using a kit from Cisbio Corp. (cat. no. 62AM4PEC) based on HTRF (Homogenous Time Resolved Fluorescence). […] The percent activity value (E %) was calculated by setting 1000 nM of urocortin 2 (UCN2) as 100%.
A CRF1R-overexpression CHO cell line was used in this study.

human CRF2α receptor = molecular target: T2, human CRF2α receptor (Homo sapiens, UniProt Q13324); test: cAMP agonism at human CRF2 α receptor in TeloHEAC cells (Example 7); assay type: cell-based; details: cAMP HTRF, TeloHEAC cells stably expressing human CRF2 α
T2 construct: expressed in transfected cells; host or cells: TeloHEAC
T2 sequence (Q13324 1-411): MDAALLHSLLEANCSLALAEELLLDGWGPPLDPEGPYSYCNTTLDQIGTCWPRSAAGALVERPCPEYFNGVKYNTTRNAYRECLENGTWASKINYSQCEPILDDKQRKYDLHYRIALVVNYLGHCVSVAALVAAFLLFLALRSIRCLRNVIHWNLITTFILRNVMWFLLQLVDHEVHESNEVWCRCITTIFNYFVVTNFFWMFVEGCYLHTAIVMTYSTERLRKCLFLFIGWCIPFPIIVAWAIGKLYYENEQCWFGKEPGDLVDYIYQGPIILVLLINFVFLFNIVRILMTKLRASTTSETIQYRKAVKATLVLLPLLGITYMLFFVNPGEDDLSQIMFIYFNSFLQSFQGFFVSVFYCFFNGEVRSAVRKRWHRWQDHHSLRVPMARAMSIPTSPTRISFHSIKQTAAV
Summary of the method: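 Thawed frozen stably transfected cells in HBSS/20 mM HEPES (0% or 0.1% HSA) plus 2 mM IBMX were exposed to compound at 2000 cells/well for 30 min at room temperature. Intracellular cAMP was read by HTRF (665/620 nm ratio) after 1 h lysis; EC50 was derived with 1000 nM urocortin 2 set as 100%.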

[1] = molecular target: T3, CRF1R receptor (anti-target) (UniProt P34998 24-415, limits assumed); test: cell-based or functional assay
T3 sequence (looked up): T1 sequence (P34998 24-415)

- EC50 (CRF1R receptor; 0% HSA): > 1000 nM
- Emax (CRF1R receptor; read-out: Emax (%)): 25.6%
- EC50 (human CRF2α receptor; 0% HSA, read-out: EC50 [nM], 0% HSA): 0.04 nM
- EC50 (human CRF2α receptor; 0.1% HSA, read-out: EC50 [nM], 0.1% HSA): 2.76 nM
Molecule: CC[C@H](C)[C@H](N)C(=O)N[C@H](C(=O)N[C@@H](CC(C)C)C(=O)N[C@@H](CO)C(=O)N[C@@H](CC(C)C)C(=O)N[C@@H](CC(=O)O)C(=O)N[C@@H](C(=O)N1CCC[C@H]1C(=O)N[C@H](C(=O)N[C@@H](CCCCN)C(=O)N[C@@H](CC(C)C)C(=O)N[C@@H](CCCCNC(=O)COCCOCCNC(=O)COCCOCCNC(=O)CC[C@H](NC(=O)CC[C@H](NC(=O)CCCCCCCCCCCCCCCCCCC(=O)O)C(=O)O)C(=O)O)C(=O)N[C@@H](CCC(N)=O)C(=O)N[C@H](C(=O)N[C@@H](CC(C)C)C(=O)N[C@@H](CC(C)C)C(=O)N[C@@H](CCCCN)C(=O)N[C@@H](CCC(N)=O)C(=O)N[C@@H](CCC(=O)O)C(=O)N[C@@H](CCCNC(=N)N)C(=O)N[C@@H](CCC(N)=O)C(=O)N[C@@H](CCCCN)C(=O)NC(C)(C)C(=O)N[C@@H](CCC(N)=O)C(=O)N[C@@H](CCCNC(=N)N)C(=O)N[C@@H](CCC(=O)O)C(=O)N[C@@H](CCC(N)=O)C(=O)N[C@@H](C)C(=O)N[C@@H](CCC(=O)O)C(=O)N[C@@H](CCCCN)C(=O)N[C@@H](CC(N)=O)C(=O)N[C@@H](CCCCN)C(=O)N[C@@H](CCC(N)=O)C(=O)N[C@H](C(=O)N[C@@H](CC(C)C)C(=O)N[C@@H](C)C(=O)N[C@@H](CCC(N)=O)C(=O)N[C@H](C(N)=O)C(C)C)[C@@H](C)CC)[C@@H](C)CC)[C@@H](C)CC)C(C)C)C(C)C [compound 172] (H-IVLSLD[dV]PIKLK([AEEA-AEEA-γGlu-γGlu-C20 diacid])QILLKQERQK[Aib]QREQAEKNKQILAQV-NH2; N-terminus assumed)

- EC50 [nM] 0% HSA (cAMP, HTRF) [1]: > 100 nM
- Emax (%) (100% = Sauvagine at 100 nM) [1]: 0.1%
B1: peptide of SEQ ID NO: 25 (peptide)
peptide: IVLSLD[dV]PTKLK([γGlu-Palmitoyl])KKLLKQERKRKEREKAEKNARILERV-NH2
modifications: N-terminus assumed
SMILES: CCCCCCCCCCCCCCCC(=O)N[C@@H](CCC(=O)NCCCC[C@H](NC(=O)[C@H](CC(C)C)NC(=O)[C@H](CCCCN)NC(=O)[C@@H](NC(=O)[C@@H]1CCCN1C(=O)[C@H](NC(=O)[C@H](CC(=O)O)NC(=O)[C@H](CC(C)C)NC(=O)[C@H](CO)NC(=O)[C@H](CC(C)C)NC(=O)[C@@H](NC(=O)[C@@H](N)[C@@H](C)CC)C(C)C)C(C)C)[C@@H](C)O)C(=O)N[C@@H](CCCCN)C(=O)N[C@@H](CCCCN)C(=O)N[C@@H](CC(C)C)C(=O)N[C@@H](CC(C)C)C(=O)N[C@@H](CCCCN)C(=O)N[C@@H](CCC(N)=O)C(=O)N[C@@H](CCC(=O)O)C(=O)N[C@@H](CCCNC(=N)N)C(=O)N[C@@H](CCCCN)C(=O)N[C@@H](CCCNC(=N)N)C(=O)N[C@@H](CCCCN)C(=O)N[C@@H](CCC(=O)O)C(=O)N[C@@H](CCCNC(=N)N)C(=O)N[C@@H](CCC(=O)O)C(=O)N[C@@H](CCCCN)C(=O)N[C@@H](C)C(=O)N[C@@H](CCC(=O)O)C(=O)N[C@@H](CCCCN)C(=O)N[C@@H](CC(N)=O)C(=O)N[C@@H](C)C(=O)N[C@@H](CCCNC(=N)N)C(=O)N[C@H](C(=O)N[C@@H](CC(C)C)C(=O)N[C@@H](CCC(=O)O)C(=O)N[C@@H](CCCNC(=N)N)C(=O)N[C@H](C(N)=O)C(C)C)[C@@H](C)CC)C(=O)O

- EC50 [nM] 0% HSA (cAMP, HTRF) [1]: > 100 nM
- Emax (%) (100% = Sauvagine at 100 nM) [1]: 0.4%
B2: peptide of SEQ ID NO: 16 (peptide)
peptide: IVLSLDVPIGLK([AEEA-AEEA-γGlu-C18 diacid])QKLLKQQRQRKERQQAEKNARILARV-NH2
modifications: N-terminus assumed
SMILES: CC[C@H](C)[C@H](N)C(=O)N[C@H](C(=O)N[C@@H](CC(C)C)C(=O)N[C@@H](CO)C(=O)N[C@@H](CC(C)C)C(=O)N[C@@H](CC(=O)O)C(=O)N[C@H](C(=O)N1CCC[C@H]1C(=O)N[C@H](C(=O)NCC(=O)N[C@@H](CC(C)C)C(=O)N[C@@H](CCCCNC(=O)COCCOCCNC(=O)COCCOCCNC(=O)CC[C@H](NC(=O)CCCCCCCCCCCCCCCCC(=O)O)C(=O)O)C(=O)N[C@@H](CCC(N)=O)C(=O)N[C@@H](CCCCN)C(=O)N[C@@H](CC(C)C)C(=O)N[C@@H](CC(C)C)C(=O)N[C@@H](CCCCN)C(=O)N[C@@H](CCC(N)=O)C(=O)N[C@@H](CCC(N)=O)C(=O)N[C@@H](CCCNC(=N)N)C(=O)N[C@@H](CCC(N)=O)C(=O)N[C@@H](CCCNC(=N)N)C(=O)N[C@@H](CCCCN)C(=O)N[C@@H](CCC(=O)O)C(=O)N[C@@H](CCCNC(=N)N)C(=O)N[C@@H](CCC(N)=O)C(=O)N[C@@H](CCC(N)=O)C(=O)N[C@@H](C)C(=O)N[C@@H](CCC(=O)O)C(=O)N[C@@H](CCCCN)C(=O)N[C@@H](CC(N)=O)C(=O)N[C@@H](C)C(=O)N[C@@H](CCCNC(=N)N)C(=O)N[C@H](C(=O)N[C@@H](CC(C)C)C(=O)N[C@@H](C)C(=O)N[C@@H](CCCNC(=N)N)C(=O)N[C@H](C(N)=O)C(C)C)[C@@H](C)CC)[C@@H](C)CC)C(C)C)C(C)C

- EC50 [nM] 0% HSA (cAMP, HTRF) [1]: > 100 nM
- Emax (%) (100% = Sauvagine at 100 nM) [1]: 1.2%
B3: peptide of SEQ ID NO: 22 (peptide)
peptide: IVLSLDVPIKLK([AEEA-AEEA-γGlu-C18 diacid])QILLKQERQK[Aib]QRQKAEKNKQILAQV-NH2
modifications: N-terminus assumed
SMILES: CC[C@H](C)[C@H](N)C(=O)N[C@H](C(=O)N[C@@H](CC(C)C)C(=O)N[C@@H](CO)C(=O)N[C@@H](CC(C)C)C(=O)N[C@@H](CC(=O)O)C(=O)N[C@H](C(=O)N1CCC[C@H]1C(=O)N[C@H](C(=O)N[C@@H](CCCCN)C(=O)N[C@@H](CC(C)C)C(=O)N[C@@H](CCCCNC(=O)COCCOCCNC(=O)COCCOCCNC(=O)CC[C@H](NC(=O)CCCCCCCCCCCCCCCCC(=O)O)C(=O)O)C(=O)N[C@@H](CCC(N)=O)C(=O)N[C@H](C(=O)N[C@@H](CC(C)C)C(=O)N[C@@H](CC(C)C)C(=O)N[C@@H](CCCCN)C(=O)N[C@@H](CCC(N)=O)C(=O)N[C@@H](CCC(=O)O)C(=O)N[C@@H](CCCNC(=N)N)C(=O)N[C@@H](CCC(N)=O)C(=O)N[C@@H](CCCCN)C(=O)NC(C)(C)C(=O)N[C@@H](CCC(N)=O)C(=O)N[C@@H](CCCNC(=N)N)C(=O)N[C@@H](CCC(N)=O)C(=O)N[C@@H](CCCCN)C(=O)N[C@@H](C)C(=O)N[C@@H](CCC(=O)O)C(=O)N[C@@H](CCCCN)C(=O)N[C@@H](CC(N)=O)C(=O)N[C@@H](CCCCN)C(=O)N[C@@H](CCC(N)=O)C(=O)N[C@H](C(=O)N[C@@H](CC(C)C)C(=O)N[C@@H](C)C(=O)N[C@@H](CCC(N)=O)C(=O)N[C@H](C(N)=O)C(C)C)[C@@H](C)CC)[C@@H](C)CC)[C@@H](C)CC)C(C)C)C(C)C
